According to publication doi:10.1101/2022.09.02.506315 (bioRxiv, 2022):

B1: Thermus thermophilus transcription termination factor Rho (natural protein, UniProt Q5SJE9 1-426, looked up)
chain: MRRKETLQETPLTYQELASKILPELHLLAQEAGIEGYKRMKKDQLIMALLERQTQGEGLRLVKGYLEISQDGYGFLTENLHNLESRVAIVSAGLIKQYALRAGDYVVGQARPPRENERYATLLKVEAVNNLDPEAAKNRPRFDELTPQFPDRQIRLETTPDELSTRVIDLLAPIGRGQRGLIVAPPKAGKTTLLKKIANAVLKNEPDIKVIVLLIDERPEEVTDFRESVQGAEVIASTFDEPPQNHIRVAEFVHERAKRIVEEGGHVMILLDSITRLARANNLVTPPTGRTLSGGLDSAALYFPKRFLGAARNIRGGGSLTILATALVETGSRMDDVIFEEFKGTGNMELHLSRRLEERRIFPAIDILKSGTRREELLLGEEVTHKMWLLRKVLADMDPAEAMEMLLARLARTKNNKEFLASLAAR

Experiments:
Assay in all cases: cryo-EM structure
[1] = molecular target: Thermus thermophilus RNA polymerase β' subunit (Thermus thermophilus, UniProt Q8RQE8 1-1524)
Thermus thermophilus RNA polymerase β' subunit, sequence (Q8RQE8 whole entry): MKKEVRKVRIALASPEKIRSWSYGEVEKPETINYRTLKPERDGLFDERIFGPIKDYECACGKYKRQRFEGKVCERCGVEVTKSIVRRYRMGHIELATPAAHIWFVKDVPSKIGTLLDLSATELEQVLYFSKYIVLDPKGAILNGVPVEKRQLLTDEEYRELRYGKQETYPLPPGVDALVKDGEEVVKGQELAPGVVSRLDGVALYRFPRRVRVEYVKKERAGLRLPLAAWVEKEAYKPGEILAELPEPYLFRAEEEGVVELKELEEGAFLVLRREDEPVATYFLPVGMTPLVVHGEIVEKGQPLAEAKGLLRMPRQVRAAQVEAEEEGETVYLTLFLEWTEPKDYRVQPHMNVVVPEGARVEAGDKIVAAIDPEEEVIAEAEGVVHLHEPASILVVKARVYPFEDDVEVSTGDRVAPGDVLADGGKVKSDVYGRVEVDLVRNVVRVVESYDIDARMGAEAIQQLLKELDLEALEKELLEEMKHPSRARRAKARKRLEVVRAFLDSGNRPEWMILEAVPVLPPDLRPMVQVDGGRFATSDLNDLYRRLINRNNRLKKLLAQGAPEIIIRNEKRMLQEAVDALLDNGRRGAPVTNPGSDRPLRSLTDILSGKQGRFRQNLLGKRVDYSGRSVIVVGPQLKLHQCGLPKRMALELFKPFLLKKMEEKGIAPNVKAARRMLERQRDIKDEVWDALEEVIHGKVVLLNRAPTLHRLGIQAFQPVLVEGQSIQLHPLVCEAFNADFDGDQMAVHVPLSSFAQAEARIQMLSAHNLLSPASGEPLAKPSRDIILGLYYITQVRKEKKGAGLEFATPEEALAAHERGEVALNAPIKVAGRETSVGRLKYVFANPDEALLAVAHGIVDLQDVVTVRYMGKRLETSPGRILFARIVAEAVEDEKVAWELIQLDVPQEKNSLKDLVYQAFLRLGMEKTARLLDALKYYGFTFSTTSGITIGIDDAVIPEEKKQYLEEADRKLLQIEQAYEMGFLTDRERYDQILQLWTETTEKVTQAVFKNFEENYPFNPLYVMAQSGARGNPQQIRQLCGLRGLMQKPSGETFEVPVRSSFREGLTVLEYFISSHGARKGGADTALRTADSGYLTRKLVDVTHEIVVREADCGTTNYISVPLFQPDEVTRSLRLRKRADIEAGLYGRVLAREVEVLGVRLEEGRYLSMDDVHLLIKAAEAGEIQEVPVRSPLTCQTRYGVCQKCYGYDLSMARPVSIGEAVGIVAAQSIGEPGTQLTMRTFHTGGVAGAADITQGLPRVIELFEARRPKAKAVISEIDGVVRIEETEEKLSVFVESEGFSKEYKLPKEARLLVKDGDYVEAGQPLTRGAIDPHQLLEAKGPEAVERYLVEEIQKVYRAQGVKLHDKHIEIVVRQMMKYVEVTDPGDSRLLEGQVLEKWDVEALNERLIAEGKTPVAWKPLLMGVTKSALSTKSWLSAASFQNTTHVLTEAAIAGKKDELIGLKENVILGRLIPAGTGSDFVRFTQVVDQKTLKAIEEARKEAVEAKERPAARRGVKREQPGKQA

[2] = molecular target: Thermus thermophilus RNA polymerase β subunit (Thermus thermophilus, UniProt Q8RQE9 1-1119)
Thermus thermophilus RNA polymerase β subunit, sequence (Q8RQE9 whole entry): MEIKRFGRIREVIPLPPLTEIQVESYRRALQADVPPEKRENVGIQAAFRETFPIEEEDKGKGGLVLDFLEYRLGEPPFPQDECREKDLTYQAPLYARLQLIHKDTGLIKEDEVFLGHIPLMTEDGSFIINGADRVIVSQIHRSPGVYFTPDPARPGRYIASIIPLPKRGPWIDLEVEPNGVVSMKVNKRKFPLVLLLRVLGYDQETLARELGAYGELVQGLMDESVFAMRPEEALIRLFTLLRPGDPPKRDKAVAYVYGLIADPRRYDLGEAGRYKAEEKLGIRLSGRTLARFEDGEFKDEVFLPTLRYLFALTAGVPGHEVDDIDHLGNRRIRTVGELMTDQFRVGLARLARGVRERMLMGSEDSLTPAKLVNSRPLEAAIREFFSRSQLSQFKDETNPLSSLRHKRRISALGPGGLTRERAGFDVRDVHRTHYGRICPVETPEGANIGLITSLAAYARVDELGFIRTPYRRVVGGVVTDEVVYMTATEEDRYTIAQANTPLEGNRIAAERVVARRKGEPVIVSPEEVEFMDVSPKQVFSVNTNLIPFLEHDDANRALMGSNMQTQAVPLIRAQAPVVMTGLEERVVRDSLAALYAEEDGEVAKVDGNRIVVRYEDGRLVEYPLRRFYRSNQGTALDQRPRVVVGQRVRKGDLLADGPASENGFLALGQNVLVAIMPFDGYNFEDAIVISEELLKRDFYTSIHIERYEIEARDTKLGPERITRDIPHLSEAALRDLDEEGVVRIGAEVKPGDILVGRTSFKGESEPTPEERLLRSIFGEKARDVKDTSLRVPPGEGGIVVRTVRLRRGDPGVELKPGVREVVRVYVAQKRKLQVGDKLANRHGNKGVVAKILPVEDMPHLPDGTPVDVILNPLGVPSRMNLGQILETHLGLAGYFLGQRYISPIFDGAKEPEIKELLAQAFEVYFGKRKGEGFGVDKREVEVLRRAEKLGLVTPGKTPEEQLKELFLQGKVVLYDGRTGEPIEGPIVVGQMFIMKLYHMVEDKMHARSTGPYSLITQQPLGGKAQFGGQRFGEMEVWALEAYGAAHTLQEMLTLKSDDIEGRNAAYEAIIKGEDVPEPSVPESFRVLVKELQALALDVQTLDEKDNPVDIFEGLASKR

cryo-EM structure = molecular target: the molecule itself
[3] = molecular target: B1

## B1
[1]
  binding result: binds
[2]
  binding result: binds
cryo-EM structure
  stoichiometry N: 6

B2: Thermus thermophilus RNA polymerase ω subunit (natural protein)
chain: MAEPGIDKLFGMVDSKYRLTVVVAKRAQQLLRHGFKNTVLEPEERPKMQTLEGLFDDPNAVTWAMKELLTGRLVFGENLVPEDRLQKEMERLYPVEREE
[3]
  binding result: binds
